Test results reported in patent US5650283.

How the values were obtained:
[1] = tested on: LexA(1-202)-AHRNΔ166 chimera (synthetic construct); assay: cell_activity; conditions: average lacZ induction over background, agonist dependent
[2] = tested on: human AhR + ARNT expressed in yeast (Homo sapiens); assay: cell_activity; conditions: lacZ induction over background by betaNF or alphaNF; none with AHR or ARNT only

Substance | activity [1] [fold] | activity [2] [fold]
eight LexA operator lacZ reporter (pSH18-34) | 90 | 
DRE2-DRE3 lacZ reporter (pDRE23-Z) |  | 12
